Data reported in patent US20240270826A1.
“And” between values parts separate entries of the source, which are not always exact repeats. Equal entries are not always repeated. Where two headings read alike, the source gives them in different places.

How the values were obtained:
[1] = target: Human SARS-CoV-2_Wuhan S (SmT1) (SARS-CoV-2 (Wuhan)) (UniProt P0DTC2)
[2] = target: SARS-CoV-2 S1 (aa16-685) (Wuhan) (SARS-CoV-2 Wuhan) (UniProt P0DTC2); test: SPR, antigen on chip
[3] = target: SARS-CoV-2 S1-RBD fused to human Fc (S1-RBD-Fc) (SARS-CoV-2 Wuhan; human); test: SPR, antigen on chip
[4] = target: SARS-CoV-2 spike trimer S (Wuhan, SmT1) (SARS-CoV-2 Wuhan); test: SPR, antigen on chip
[5] = target: SARS-CoV-2 S1 (aa16-685) (Wuhan) (SARS-CoV-2 Wuhan) (UniProt P0DTC2); test: SPR, antigen on chip; remark: listed apart in the source
[6] = target: SARS-CoV-2 S1-RBD fused to human Fc (S1-RBD-Fc) (SARS-CoV-2 Wuhan; human); test: SPR, antigen on chip; remark: listed apart in the source
[7] = target: SARS-CoV-2 spike trimer S (Wuhan, SmT1) (SARS-CoV-2 Wuhan); test: SPR, antigen on chip; remark: listed apart in the source
[8] = target: SARS-CoV-2 spike protein S on live virus, Wuhan (strain SARS-CoV-2/Canada/VIDO-01/2020) (SARS-CoV-2 (Wuhan)) (UniProt P0DTC2); test: cell-based or functional assay
[9] = target: Human SARS-CoV-2_Wuhan S (SmT1) (SARS-CoV-2 (Wuhan)) (UniProt P0DTC2); test: SPR, VHH over immobilised S
[10] = target: SARS-CoV spike (S) (SARS-CoV) (UniProt P59594); test: SPR, VHH over immobilised S
[11] = target: Human SARS-CoV-2_Wuhan S (SmT1) (SARS-CoV-2 (Wuhan)) (UniProt P0DTC2); test: tandem SPR, immobilized S, orientation 1: VHH alone
[12] = target: Human SARS-CoV-2_Wuhan S (SmT1) (SARS-CoV-2 (Wuhan)) (UniProt P0DTC2); test: flow cytometry SVNA, VHH vs biotin-S binding to Vero E6 ACE2
[13] = target: SARS-CoV-2 S on CHO-S cells (SARS-CoV-2) (UniProt P0DTC2); test: flow cytometry, CHO-S cells
[14] = target: Human SARS-CoV-2_Wuhan S (SmT1) (SARS-CoV-2 (Wuhan)) (UniProt P0DTC2); test: flow cytometry SVNA, VHH-Fc vs biotin-S binding to Vero E6 ACE2
[15] = target: Human SARS-CoV S (SARS-CoV) (UniProt P59594); test: flow cytometry SVNA: VHH-Fc inhibits S binding to ACE2 on Vero E6 cells
[16] = target: Human SARS-CoV-2_Wuhan S (SmT1) (SARS-CoV-2 (Wuhan)) (UniProt P0DTC2); test: as above

In the case of VHH-72 VHH, the End 2nd inj (RU) [1] is reported as 37.8 RU and 51.2 RU, the Kd [2] is reported as 0.156 µM and the koff [2] is reported as 0.146 s⁻¹. For the same substance, the kon [2] was 940000 M⁻¹ s⁻¹, the Kd [3] was 0.2 µM and the koff [3] was 0.134 s⁻¹. It also gave a kon [3] of 667000 M⁻¹ s⁻¹, a Kd [4] of 0.142 µM and a koff [4] of 0.156 s⁻¹. For the same substance, the kon [4] was 1.1e+06 M⁻¹ s⁻¹, the Kd [5] was 0.194 µM and the koff [5] was 0.161 s⁻¹. For the same substance, the kon [5] was 830000 M⁻¹ s⁻¹, the Kd [6] was 0.185 µM and the koff [6] was 0.126 s⁻¹. It also gave a kon [6] of 682000 M⁻¹ s⁻¹, a koff [7] of 0.15 s⁻¹ and a kon [7] of 1.06e+06 M⁻¹ s⁻¹. For the same substance, the MN100 [8] was 156 nM, the Kd [9] was 0.0862 µM and the koff [9] was 0.106 s⁻¹. The kon [9] was 1.23e+06 M⁻¹ s⁻¹, the Kd [10] was 0.00652 µM and the koff [10] was 0.00656 s⁻¹. It also gave a kon [10] of 1.01e+06 M⁻¹ s⁻¹, an End 1st inj (RU) [11] of 25.8 RU and an IC50 [12] of 0.059 µM. The IC99 [12] was 9.41 µM and the Imax % [12] was 43%.

In the case of VHH-72 VHH-Fc (Fc fusion), the LVNA IC50 [8] is reported as 0.00846 µM, the MN100 [8] is reported as 1.25 nM and the Bmax [13] is reported as 8030. The EC50 [13] was 0.0002 µM, the IC50 [14] was 0.0072 µM and the IC99 [14] was 238 nM. The Imax % [14] was 57%, the IC50 [15] was 0.0078 µM and the IC50 [16] was 0.0056 µM.
